Residue numbers refer to the chain shown, from its start.

We go through one molecule from US20020028202A1 (Biogen, published 2002).

What all share (assay): staining of transfected COS-7 cells, FACS
For assay [1], the target named is T1, human gc chain mutant, SDN replaced by Ala (Domain 1 Loop CC), myc-tagged, on COS-7 cells (human, UniProt P31785 23-369).
T1 construct: whole, on cells; not shown: 9 amino acid myc tag at the 5' end of the construct
T1 sequence (looked up): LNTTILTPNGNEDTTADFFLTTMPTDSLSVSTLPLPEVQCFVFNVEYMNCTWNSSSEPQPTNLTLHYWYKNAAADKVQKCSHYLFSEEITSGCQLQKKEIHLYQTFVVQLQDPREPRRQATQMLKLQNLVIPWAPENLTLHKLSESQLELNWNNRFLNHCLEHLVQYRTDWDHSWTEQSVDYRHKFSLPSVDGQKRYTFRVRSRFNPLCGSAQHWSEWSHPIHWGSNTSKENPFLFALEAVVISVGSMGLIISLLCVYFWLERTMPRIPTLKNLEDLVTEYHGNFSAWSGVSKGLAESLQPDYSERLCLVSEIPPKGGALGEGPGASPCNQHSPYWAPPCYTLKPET
The protocol:
(§1) COS-7 cells are transiently transfected with 20 ug of DNA encoding the gc chain mutant or wildtype cDNA and 180 ug of herring sperm carrier DNA. After 2-3 days, COS-7 cells are harvested and analyzed by immnunofluorescent staining with anti-gc chain mAbs. MAbs are used at 10 ug/ml in PBS-1% BSA-0.02% sodium azide and allowed 30 minutes to bind to 1×10⁶ COS-7 cells. Cells are then washed 2 times, and bound mAb is detected with PE-conjugated goat anti-mouse Fc specific antibodies. The % of positive cells staining with the anti-gc chain mAb over an irrelevant control Ig is determined for a given gc chain mutant and for wildtype gc chain. […] Data are adjusted for any differences in level of expression of a mutant vs. wildtype constructs by measuring the binding of a mAb specific for a 9 amino acid myc tag engineered at the 5′ end of each gc chain construct. […] Values reduced from 100% indicate amino acid mutations which affect mAb binding.
(§2) The value “100%” indicates no effect of mutation and lower percentages indicate greater losses in binding as a result of the sequence change.

For assay [2], the target named is T2, human gc chain mutant, LYQ replaced by Ala (Domain 1 Loop EF), myc-tagged, on COS-7 cells (human, UniProt P31785 23-369).
T2 construct: whole, on cells; not shown: 9 amino acid myc tag at the 5' end of the construct
T2 sequence (looked up): T1 sequence (looked up) with A72S, A73D, A74N, L102A, Y103A, Q104A
As for the experimental part: as §1, §2

The target of assay [3] is T3, human gc chain mutant, PW replaced by Ala (interdomain residues), myc-tagged, on COS-7 cells (human, UniProt P31785 23-369).
T3 construct: whole, on cells; not shown: 9 amino acid myc tag at the 5' end of the construct
T3 sequence (looked up): T1 sequence (looked up) with A72S, A73D, A74N, P132A, W133A
As for the experimental part: as §1, §2

Assay [4] addresses T4, human gc chain mutant, HCL replaced by Ala (Domain 2 Loop BC), myc-tagged, on COS-7 cells (human, UniProt P31785 23-369).
T4 construct: whole, on cells; not shown: 9 amino acid myc tag at the 5' end of the construct
T4 sequence (looked up): T1 sequence (looked up) with A72S, A73D, A74N, H159A, C160A, L161A
As for the experimental part: as §1, §2

For assay [5], the target named is T5, human gc chain mutant, LEH replaced by Ala (Domain 2 Loop BC), myc-tagged, on COS-7 cells (human, UniProt P31785 23-369).
T5 construct: whole, on cells; not shown: 9 amino acid myc tag at the 5' end of the construct
T5 sequence (looked up): T1 sequence (looked up) with A72S, A73D, A74N, L161A, E162A, H163A
As for the experimental part:
as §1, §2

The target of assay [6] is T6, human gc chain mutant, SAQ replaced by Ala (Domain 2 Loop FQ), myc-tagged, on COS-7 cells (human, UniProt P31785 23-369).
T6 construct: whole, on cells; not shown: 9 amino acid myc tag at the 5' end of the construct
T6 sequence (looked up): T1 sequence (looked up) with A72S, A73D, A74N, S211A, Q213A
The protocol: as §1, §2

B1: CP.B8 monoclonal antibody (murine anti-human gc chain, hybridoma ATCC HB-12107) (antibody, V domains shown)
VH: LQESGPGLVAPSQSLSITCTVSGFSLTSYGVHWVRQPPGKGLEWLGVIWAGGSTNYNSALMSRLNINRDNSKSQIFLKMNSLQTDDTAIYYCAREGSTVDSMDYWGQGTTVT
VL: DIVMTQSHKFMSTSVGDSITITCKASQDVTTAVAWYQQKPGQSPKLLIYWASTRHTGVPDRFTGSGSGTDYTLTISSVQAEDLALYYCQQHYITPWTFGGGTKLEI
notes: Used unconjugated and biotin-conjugated; also called CP.B8 mAb; mAb CP.B8
For B1, the “% binding to mutant gc chain/wildtype gc chain” value was determined as 68% in assay [1]; 13% in assay [2]; 73% in assay [3]; 8% in assay [4]; 0% in assay [5]; 111% in assay [6].
